Drawing on a protein production outcome set (Wang et al. 2014), this text covers protein production for 24 sequences.
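Also: failed if final PepcDB status was selected cloned or expressed and not failed if soluble or beyond.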

This data set can be described thus: label from the status in PepcDB records.
As for “MNLTKRITAWFLTLVMVLGLIPQTMFAQEIATSPLQYEATQEMNEDKTEATISIKFTETETIQLEKVTLSDGTEKVEDLSEVTYTVSENGKYDFKVNYVMEGTPQEETISVEVSGLEEKIKELVTNQNIELDVDIQLKGATYFDGHPNPFFGGTKQYMISDRSIIPYNGMQLMELIVEIPYQEGLEIQGITPSAASQYPDLSKVEKDDKNKKWTYSFYFYKNGTYEFTIDYILNGENKITSTSFTVDGLVSIKDIAMRRHLINEYGEFSGFRYQDGQYVTQDILAKEPSVGFFTFGLDGDNGTTAEYTTSLDGLQYLKNATGLYLYDCKKLAEGETIEPVTEGYYPNMKLFRVSNLNERPNMPKSAYNAELVTKSIANMPALTELVINGTGFSDCTVFRKITAGSLDYLQAMANNIVSLDGIESQQNLSSINIGQNKIKSIDPLSKLNQINFLNLMRNEVFDLRPINESLNQKAVAGNTVYGFAAREQNITYDRTVITPLQNGMYTVELPMPIDIDGSLTNTSSVSLKFANGTTKTYSTSQSEGKTYISIPEGDVDSSQENPFEGAEFKFSFNNNNGADPRTKAWFTGTVTFKASPIATNYHVIYDFISGTRGKSLPPEITNLLPIDSTKYYEGDTITAKNPTQLELEVSDGVWTFEGYDADSKTANANSANEDGNIQFTGTWIFETKKYDVSYKFESINTDKEVPKEILDMLPTVGSVEHGKTVNAPETEYKDVKVTDGVWSFKGWTPVKYENVTGNVEFVGKWEFKKNASIINHIPTISASDKTLTVGDTFDPLKDVTARDKEDGDLTKEIEILKNEVNTSKARVYEVTYKVTDSKGASSIKTIYVTVNPKMEELNRIPTISASDKTLTVGDTFDPLKDVTATDKEDGDLTKEIEILKNEVNTSEAGVYEVTYKVTDSKGASSIKTIYVTVNPKMEELNRIPTISASDKTLTVGDTFDSLKDVTATDKEDGDLTKEIEILKNEVNTSKAGVYEVTYKVTDSKGASSIKTIKVTVIEKNIPIIPNEPDKPSKPDTNKPEDNGSVGTGDKTNGVFWTMLSIICGISVIGVYRKKREINQ”, the protein production result was “failed”.
Turning to “MKTLKVYIPGIKFPSISVTGNYCALNCAHCGRHYLEGMKKITRLNLVDKCVEMEKEGYVGCLLSGGMDSRLKVPLDKFKDEIREIKEKTRLKINAHVGFIDEDDLEWLKYIDVVSLDFVGDNEVIKRVYKIDKTVNDYLKILDILTKERIKVAPHITIGLDFGRIHWEYEAIDLLSEYPIDVLVLNILIPTPGTEMENVKVSMEEALNVVRYAREEFKGELSIGCMRPFGRWREEFDKRAILIGVDRITNPPRKVIEWAKQFRKVEIHFECCVI”, the protein production result was “failed”.
As for “MNIQIILSLIFSMILMACTTSSPQKDLSRICDSSGCSDRSGNYVSNHSSAASSDEEARIRVLEDVARQDPRAAYDLGLRYFRGDGVRQDSYQALQWMREAAERGDLNAQKALGRLYLTGLEEMGADYREAEKWLRIAASRGDKESEQLLVEAAAFASEERRSGEIYHRWVNRWQPVFYQRWYYGYPYLGTWRGNYWYY”, the protein production entry was “failed”.
For “VKFLTVNDDILSMPQARNFCASAGGYLADDLGDDKNNFYSSIAANTQFWIGLFKNSDGQFYWDRGQGINPDLLNQPITYWANGEPSNDPTRQCVYFDGRSGDKSKVWTTDTCATPRPFICQKHRYDSDHKPNTIGDA” the value was “not failed”; for “MKLPLHKILKNGATVELDYIKPQEYEDVRRLLNVVIDEGQTYPQKQPLSQQEFAAYWLSQDAFVIRLSGEDGTQKPQTILGSFYIKPNFPGRCSHICNAGFIVQPGLRGQGIGKFMGESMLLVAAQLGYEAVMFNLVFETNIPSITLWQSLGFDIIGSVPDAAKLADGKVVKALIMYRALGV”, “not failed”; for “MQSPPHDPASALAIRNHYRQSQSRAARLRLLVDTGQELIQLPPEAMRKCVLQRACAFVAMDHGLLLEWGADNGVQTTARHGSKERLSTLETTADPLAIGPQWLERPGTHLPCVLLLPLRGADEGSFGTLVLANSVAISAPDGEDIESLQLLATLLAAHLENNRLLEALVARDRT”, “not failed”.
For “MRPRLGLLDASVLSFAVLPTDLDFNRHMTNARYLSLMDLGRLDLILRSGMWRLVLRQSLQPVIGGALVRFRHALRPFQPFRLTTRVLAWDARWLFIEHRVETLDGKPACTAVVRAAFVASTGMLPTADLLTRLGYGGAAPDVPAWIAPWLQADLACQPLEHHHHHH” the value was “failed”.
Consider “MGHRHQFGHGRRGGALMERALIIGASGWGREVLEQMRGDAGHGKDWLIGGFLDSRTNILDSYGVDTPIIGDPMNYLPQPDDVFVCAMGNPYDRHRYALPILQKGGRFIPICTDVRLGRRVHFGQGCFFGLMVHSGPDVRIGDFVTIHAQSMLGHDVRIGDYVHVGAMAFMGGGVQLGDFVTVHPRATLMPGVKVGDGAVIGAGAVVLKDVPAGATVFGNPAKIVFNKNIPTD”, for which the protein production result was “failed”.
As for “MSIKKLWVIPKDGYLLLLDYDSDEEEEQAHSEVKRPAFGKHENMPPHVEADEDIRDEQDSMLDKSGENVSFSEEWQRFARSVETPMENWNLLSGEQQVRNASELDLMEVQNPVTHDDGNANPEEVVGDTRKKINNKLCEQKFDMDIQKFNEEQEKSVNNYQKEQQALKLSECSQSPTMEAIEDMHEKSMEGLMNMETNNYDMLFDVDGEETL”, the protein production entry is given as “failed”.
For “MKKWRFLGIDDSFDDRKCCVVGCVTCGGYVEGFLYTEIDIDGLDATDKLISMVRRSKFREQIKCIFLPGITLGGFNLVDIQRVYRETKIPVVVVMRRKPDMEEFDSAMRNLENYELRRKIVEVAGEIHRIGDIYIQTAGLTPSEAEKLVKASLIKGNMPEPVRISHLVASAIIHGESR” the value was “not failed”.
As to “MEGVELELERRSKFLNSLIQKKKAKEQQDQKDEFNVRVRASDMPLPQQNRAFSLSREILNATPGKADNKRLAHALKKDFDSAYGPAWHCIVGTSFGSYVTHSTGGFLYFQIDKVYVLLFKTAVEPLDQK”, the protein production entry is reported as “failed”.
As for “MKKKKYLKWWIAAVSAVFIVGAGIFVYTQYKAAQTSGDVATKDGTSASASDITWNGKTYSYNEHLSNFLFLGIDTKEKAETKTGQADAGQADALYLLSWNRLEGDITVISIPRDTMTQIETFGPGGKSLGKSKDHISLSYAYGDGGYESCELAENAVSELLYGLPIDGYCALNMDGLPVLTDSVGGVTVTVPNDSLAEVDPGYAKGAVVTLKGEDTEQFVRYRNTEISQSAIARMERQQEYIRAFGEALKKASADKALVTDLYKAIEPYMVTNMGKSRFVDLTESVSEGKKVNRWTIPGEGIQGKEYDEYVVDDDALYEKTVETFYVEKK”, the entry is “failed”; as for “SGNTTSERVSGERHGAKAARAEGGGHGPGKEHKIMVGSTDDPSVFSLPDSKLPGDKEFVPWQQDLDDSVKPTQQARPTVIRWSEGGKEVFISGSFNNWSTKIPLIKSHNDFVAILDLPEGEHQYKFFVDGQWVHDPSEPVVTSQLGTINNLIHVKKSDFEVFDALKLDSMESSETSCRV”, “failed”.
In the case of “MSLPPILTSQIGPDSIELRLLVAADLEYFNGHFPEQAVLPGVTQLDWAVRLGCEHFGYSAAVANLEVLKFQQLILPGQEVTLVISHNATKEKLTFAYSDGDHRYASGRISFASKQDDGLEHHHHHH”, the protein production result was “failed”.
For “MTYVYRKNPVAAATVTVKYIDTQGNSISDSIPLSGNVDQEYTTEQKIISGYTFKEVQGNKSGLFSTTPQTVTYIYTKNPIEIKTGTVTIKYVDTNGNSISDEITKSGNVGSLYTSEQKKILGYNFKEIQGIAEGQFTIESQTVTYVYTKISTPTIIKTSVIPPKTLSVKTLPKESLPETGDKFFGFTLLSGSLLILVSTTLYLLKSRKYK” the value was “failed”; for “MLPNLNRIPQVEQYVLDYLDDLQCQHFEGDIATNYADRLSLATDNSVYQQLPQAILFPKTVADIVRITKLANLPEYQSISFTPRGGGTGTNGQSINNNIIVDLSRHMTA”, “failed”.
With “MQKLVEQVWDYTKHAKFYSYRPNYAPKTIDMLISLVGKKDIKVADIGAGTGNLSIMLLERGCKVVSVEPNDAMREIGIERTKDQKIDWVRATGLNSTLQNSEFDWVTFGSSFNVMDRNEALEEAHRLLKSEGYFSCMWNHRDLNDPVQKIAEDTIVEFVPNYTRGTRREDQRPIIESRKDLFDNIVYIEEDFYFHQSIENYINAWKSVKNPYWDLETDEGNELFNKISNKISQRLPKEFSIKYTTRCWSAKKI”, the protein production result is reported as “failed”.
For “MSNENKTIHDFELNLICDFFSNMERQGPGSPEVTLKALSFIDNLTEKSLIADIGCGTGGQTMVLAGHVTGQVTGLDFLSGFIDIFNRNARQSGLQNRVTGIVGSMDDLPFRNEELDLIWSEGAIYNIGFERGLNEWRKYLKKGGYLAVSECSWFTDERPAEINDFWMDAYPEIDTIPNQVAKIHKAGYLPVATFILPENCWTDHYFTPKVAAQKIFLTKYAGNKIAEEFSMLQSIEEELYHKYKEYYGYTFFIAKKIRLLEHHHHHH” the value was “not failed”; for “MIDTSIFQDKTAVYYTLGCKLNFSETSTIGKVLREAGVRTVRKGEKADICVVNTCSVTEVADKKCRQAIHRLVKQHPGAFVVVTGCYAQLKPDAVAKIEGVDVVLGAEQKKDLLQYLGDLRKHESGEAHTSALKDIRSFAPSCSRGDRTRFFLKVQDGCDYYCSYCTIPFARGRSRNGSIASLVEQARQAAAEGGKEIVLTGVNIGDFGKSTGETFFDLVKALDDVECIERYRISSIEPNLLTDEIIEFVSRSKRFMPHFHIPLQSGSDEVLKLMRRRYDTALFASKVKRIKEVMPDAFIGVDVIVGTRGETEEYFEQAYRFIQSLDVTQLHVFSYSERPGTQALKIEHVVSSEEKHRRSRLLLDLSDEKTRAFYARHIGQTMPVLLERSKPGTPMHGFTPNYIRVEVPHDDALDNQVIPVRMGDFNEEGTALSGAFGDK”, “failed”; for “MSQVSTEFIPTRIAILTVSNRRGEEDDTSGHYLRDSAQEAGHHVVDKAIVKENRYAIRAQVSAWIASDDVQVVLITGGTGLTEGDQAPEALLPLFDREVEGFGEVFRMLSFEEIGTSTLQSRAVAGVANKTLIFAMPGSTKACRTAWENIIAPQLDARTRPCNFHPHLKK”, “not failed”.
For “MKLVLEGVDSFETLRVVGTFNCIDPDYVGSKRVTKKADVYAFEVILMELITGRKANYETLSVDEQNLVMWLRPKIKISTFLNLVDGTIATDKETIKRIKKIAKLAEYCTSQEVESRPLRASRTKSGNEVTSED” the value was “failed”.
Take “MYANKVKKIAAVHDLSGMGRVSLTVVIPILSSMGFQVCPLPTAVLSNHTQYPGFSFLDLTDEMPKIIAEWKKLEVQFDAIYTGYLGSPRQIQIVSDFIKDFRQPDSLIVADPVLGDNGRLYTNFDMEMVKEMRHLITKADVITPNLTELFYLLDEPYKADSTDEELKEYLRLLSDKGPQVVIITSVPVHDEPHKTSVYAYNRQGNRYWKVTCPYLPAHYPGTGDTFTSVITGSLMQGDSLPMALDRATQFILQGIRATFGYEYDNREGILLEKVLHNLDMPIQMASYELI”: the protein production entry is reported as “not failed”.
As for “MIKERPKFNWLHLLIFIVVVEAIGSLSAWLAGDIKAVYNGLNLPVLSPPDGLFGIVWPILYALIAIAGYLVFQQATTHRDRLMDATLFGIQLLLNFIWSIIFFSQSAYWWGLVIIIVLDLVVLLCILRFYRSSRLAAILMVPYLVWICFATYLTLGVALLN”, the protein production result is “failed”.
For “MSFFKLKENNTSFKTEVIAGLTTFLAMVYIIPVNSSIVGNTGMPIEALITATALITIVASAFNAFFANTPVAMSVGMGLNAYFTFAVCLGQNIAWQSALGAVFISSIIFLILSFTHFRLWVIRNIPKDLRLAICAGIGCFIAFLGLSQMGVIMHNKDTLVSIGNFKSPHVLFGIFTLALIIFFWAIKLLGAFILGVLASSIIAWIFHLDNASFPVQIFSWPNFSMENGLGAIFLQLDIKSALNITMIPIILTFFITQLFDSIGTITGVGERGKIFDDPKNGEKKLSKTLMADATGSALGAMTGTSTVTAFVESTTGVESGGRTGLTALVVAICFAFTLFLLPLFKAIPANAIYPVLVMVGILMFMEVKNIDFKDSAIAVASFFTIIMMPFTYSITTGFAFGFLSYLLVRIFKREWDKINLGIIVLSLLSLGNFLLMALQ” the value was “failed”.
